# Values quoted from earlier work in patent publication US20250101104A1, “BISPECIFIC MOLECULE WITH TUNABLE AFFINITY TO A TARGETED ANTIGEN” (MABSWITCH INC., priority 2022, published 2025).
# B1: MGDO06: CD3×CD123 DART (Macrogenics) (antibody, chains of the INN, looked up, V domains shown)
# VH: EVQLVQSGAELKKPGASVKVSCKASGYTFTDYYMKWVRQAPGQGLEWIGDIIPSNGATFYNQKFKGRVTITVDKSTSTAYMELSSLRSEDTAVYYCARSHLLRASWFAYWGQGTLVTVSS
# VL: DFVMTQSPDSLAVSLGERVTMSCKSSQSLLNSGNQKNYLTWYQQKPGQPPKLLIYWASTRESGVPDRFSGSGSGTDFTLTISSLQAEDVAVYYCQNDYSYPYTFGQGTKLEIK
# VH2: EVQLVESGGGLVQPGGSLRLSCAASGFTFSTYAMNWVRQAPGKGLEWVGRIRSKYNNYATYYADSVKDRFTISRDDSKNSLYLQMNSLKTEDTAVYYCVRHGNFGNSYVSWFAYWGQGTLVTVSS
# VL2: QAVVTQEPSLTVSPGGTVTLTCRSSTGAVTTSNYANWVQQKPGQAPRGLIGGTNKRAPWTPARFSGSLLGGKAALTITGAQAEDEADYYCALWYSNLWVFGGGTKLTVL
# modifications: DART
# Test system: AML cell lines and primary AML blasts
# Settings: in vitro and in NOD SCID mice injected with human AML
molecule,measurement,value
B1,killing of AML cell lines and primary AML blasts,dose-dependent killing
